Data on three molecules can be found in US20180306789A1 (published 2018).

In test [1] the target is T1, MUC-009 (peptide code; source protein not spelled out) peptide on HLA-A*02:01 (human).
T1 peptide: ILQEGTFKA
Kind of test: cytokine release.

Test [2] deals with T2, GSTA4-001 (peptide code; source protein not spelled out) peptide on HLA-A*02:01 (human).
T2 peptide: KLQDGNHLL
The experiment in a line: cytokine release.

Test [3] deals with T3, WRN-002 (peptide code; source protein not spelled out) peptide on HLA-A*02:01 (human).
T3 peptide: ILQDLQPFL
The experiment in a line: cytokine release.

Test [4] has as its target T4, AHR-002 (peptide code; source protein not spelled out) peptide on HLA-A*02:01 (human).
T4 peptide: NLQEGEFLL
Kind of test: cytokine release.

Test [5] has as its target T5, PFN1-001 (peptide code; source protein not spelled out) peptide on HLA-A*02:01 (human).
T5 peptide: LLQDGEFSM
Kind of test: cytokine release.

Test [6] concerns the target T6, VPS39-001 (peptide code; source protein not spelled out) peptide on HLA-A*02:01 (human).
T6 peptide: LLQDKQFEL
Kind of test: cytokine release.

In test [7] the target is T7, SNR-004 (peptide code; source protein not spelled out) peptide on HLA-A*02:01 (human).
T7 peptide: ILQDGRIFI
Kind of test: cytokine release.

Test [8] concerns the target T8, VPS51-001 (peptide code; source protein not spelled out) peptide on HLA-A*02:01 (human).
T8 peptide: TLTDEQFLV
Kind of test: cytokine release.

The target of test [9] is T9, KCM-001 (peptide code; source protein not spelled out) peptide on HLA-A*02:01 (human).
T9 peptide: TLQNSQFLL
Kind of test: cytokine release.

In test [10] the target is T10, GRB14-002 (peptide code; source protein not spelled out) peptide on HLA-A*02:01 (human).
T10 peptide: GLVDGVFLV
Kind of test: cytokine release.

For test [11], the target named is T11, DDB1 and CUL4 associated factor 4-like 2 (DCAF4L2); peptide DCAF4L2-001 peptide on HLA-A*02:01 (human).
T11 peptide: ILQDGQFLV
The experiment in a line: multimer staining.

B1: R36P3F9 (TCR, V domains shown)
Valpha: SQQGEEDPQALSIQEGENATMNCSYKTSINNLQWYRQNSGRGLVHLILIRSNEREKHSGRLRVTLDTSKKSSSLLITASRAADTASYFCATVSNYQLIWGAGTKLIIKP
Vbeta: EAQVTQNPRYLITVTGKKLTVTCSQNMNHEYMSWYRQDPGLGLRQIYYSMNVEVTDKGDVPEGYKVSRKEKRNFPLILESPSPNQTSLYFCASSSTSGGLSGETQYFGPGTRLLVL
B1: the binding result in test [1], in test [2], in test [3], in test [4], in [5] and in [6] was “no recognition” in each case. Besides, the binding result is “no recognition” in test [7]; “no recognition” in test [8]; “no recognition” in [9]; “no recognition” in test [10]; “recognises” in [11].

B2: R52P2G11 (TCR, V domains shown)
Valpha: KNQVEQSPQSLIILEGKNCTLQCNYTVSPFSNLRWYKQDTGRGPVSLTIMTFSENTKSNGRYTATLDADTKQSSLHITASQLSDSASYICVVSAYGKLQFGAGTQVVVTP
Vbeta: DAGVIQSPRHEVTEMGQEVTLRCKPISGHNSLFWYRQTMMRGLELLIYFNNNVPIDDSGMPEDRFSAKMPNASFSTLKIQPSEPRDSAVYFCASSLGSPDGNQPQHFGDGTRLSIL
For B2, the binding result in test [1], in test [2], in test [3], in [4], in [5] and in [6] was “no recognition” in each case. In addition, the binding result is on record as “no recognition” in test [7]; “no recognition” in test [8]; “no recognition” in test [9]; “no recognition” in test [10]; “recognises” in test [11].

B3: R53P2A9 (TCR, V domains shown)
Valpha: AQTVTQSQPEMSVQEAETVTLSCTYDTSESDYYLFWYKQPPSRQMILVIRQEAYKQQNATENRFSVNFQKAAKSFSLKISDSQLGDAAMYFCAYNSYAGGTSYGKLTFGQGTILTVHP
Vbeta: DAGVTQSPTHLIKTRGQQVTLRCSPISGHKSVSWYQQVLGQGPQFIFQYYEKEERGRGNFPDRFSARQFPNYSSELNVNALLLGDSALYLCASSLDGTSEQYFGPGTRLTVT
As to B3, the binding result in [1], in test [2], in test [3], in test [4], in [5] and in test [6] was “no recognition” in each case. The binding result in test [7] is on record as “no recognition”; in test [8], “no recognition”; in [9] it was “no recognition”; in test [10], “no recognition”; in test [11], “recognises”.
